The results in this text go back to patent US20250340655A1, “EPHA2-TARGETING ANTIBODIES AND THEIR APPLICATIONS IN CANCER TREATMENT” (TAIPEI MEDICAL UNIVERSITY, priority 2022, published 2025).

Experiment [1] has as its target T1, EphA7 overexpressed on 293T cells (UniProt Q15375 28-998, limits assumed).
T1 construct: whole, on cells
Description: flow cytometry on 293T cells overexpressing EphA1-A8. How it is done: (§1) To detect the binding specificity of scFv, 293T cells were transformed with EphA1-A8 plasmids individually for overexpression of different EphA molecules. The cell line was freshly prepared and washed with FACS buffer (2% FBS in PBS). The cells were seeded at 1×10⁵ cells/well into a 96-well Ubottom plate and incubated with scFv for 1 h at 4° C. After the plate was washed with FACS buffer, the anti-hemagglutinin (HA) antibody was added for scFv binding detection (scFv was fused with a HA tag) and subsequently developed using an FITC-conjugated secondary antibody. Finally, the cell binding signal was analyzed using a FACS can flow cytometer.

In experiment [2] the target is T2, EphA5 overexpressed on 293T cells (UniProt P54756 25-1037, limits assumed).
T2 construct: whole, on cells
The experiment is described as above. How it is done:
as §1

Experiment [3] deals with T3, EphA3 overexpressed on 293T cells (UniProt P29320 21-983, limits assumed).
T3 construct: whole, on cells
T3 sequence (looked up): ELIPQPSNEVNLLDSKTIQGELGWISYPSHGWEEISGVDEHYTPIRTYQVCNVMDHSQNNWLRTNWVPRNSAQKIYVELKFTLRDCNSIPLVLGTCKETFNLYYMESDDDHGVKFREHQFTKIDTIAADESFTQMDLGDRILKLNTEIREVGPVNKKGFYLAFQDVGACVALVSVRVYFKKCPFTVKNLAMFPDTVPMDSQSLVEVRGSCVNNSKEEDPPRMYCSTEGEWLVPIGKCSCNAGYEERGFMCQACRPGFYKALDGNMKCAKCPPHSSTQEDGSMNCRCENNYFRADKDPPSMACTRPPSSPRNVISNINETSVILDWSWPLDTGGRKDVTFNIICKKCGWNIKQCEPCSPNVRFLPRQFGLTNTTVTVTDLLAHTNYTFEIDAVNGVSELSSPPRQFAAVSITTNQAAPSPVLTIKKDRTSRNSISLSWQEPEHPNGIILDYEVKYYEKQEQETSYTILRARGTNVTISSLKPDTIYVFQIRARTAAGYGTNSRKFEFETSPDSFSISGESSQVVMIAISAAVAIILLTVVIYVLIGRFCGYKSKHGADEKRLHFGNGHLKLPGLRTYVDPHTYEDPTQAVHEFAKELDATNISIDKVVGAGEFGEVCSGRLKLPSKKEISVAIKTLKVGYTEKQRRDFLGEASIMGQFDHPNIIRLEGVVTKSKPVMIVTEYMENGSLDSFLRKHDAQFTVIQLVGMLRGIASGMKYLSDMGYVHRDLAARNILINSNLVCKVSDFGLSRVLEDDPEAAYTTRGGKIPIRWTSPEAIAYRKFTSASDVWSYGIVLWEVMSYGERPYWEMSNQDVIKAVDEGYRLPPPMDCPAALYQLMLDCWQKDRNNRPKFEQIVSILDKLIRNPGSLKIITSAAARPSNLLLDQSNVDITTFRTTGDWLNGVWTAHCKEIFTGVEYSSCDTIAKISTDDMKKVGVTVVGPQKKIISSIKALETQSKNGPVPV
The description is as above. The method, then:
as §1

Another experiment has as its system Mia PaCa-2 tumor. Description: Mia PaCa-2 tumor xenograft model (IgG hSD5, gemcitabine). It counts as in vivo, mouse. The method, then:
The freshly prepared BxPc-3 and Mia PaCa-2 cancer cells were harvested during the log growth phase and resuspended in PBS for tumor implantation. Each NOD/SCID mouse was subcutaneously inoculated with cancer cells (5×10^6 to BxPc-3 and 1×10^7 to Mia PaCa-2) for tumor formation. The tumor size was measured twice weekly, and the volume was calculated as follows: V=0.5lw^2, where l=the length and w=the width. When the tumor size was approximately 100 mm3, animals were divided into groups that received (a) vehicle alone through intravenous injection (i.v.) once weekly (qwk), (b) control human IgG1 at 20 mg/kg through i.v. qwk, (c) and (d) hSD5 IgG1 at 2 or 20 mg/kg through i.v. qwk, (e) and (f) gemcitabine at 20 or 100 mg/kg through i.v. twice weekly (biw), or (g) hSD5 IgG1 at 2 mg/kg through i.v. qwk combined with gemcitabine at 20 mg/kg through i.v. biw. At the end of the experiment, the antitumor effects were quantified by dividing the tumor volumes in the treatment groups by those in the control groups and multiplying them by 100 to represent tumor growth inhibition (TGI; %). The mice were also examined frequently for overt signs of adverse drug-related side effects.
The pancreatic tissue microarray slide (US Biomax, PA483e) was used to detect and analyze the EphA2 expression of clinical samples. In the xenograft animal model, the excised BxPc-3 and Mia PaCa-2 tumors were fixed in formalin, embedded in paraffin, and sliced for immunohistochemical staining (IHC). Commercial antibodies (Cell signaling, Dako; Agilent Technologies; and Abcam) were used for staining the EphA2 molecule, cell proliferation marker Ki-67, and apoptosis marker cleaved caspase 3. The effects of staining were observed using a Zeiss Axioskop-2 microscope (Carl Zeiss).
Mia PaCa-2 xenograft mice was also used to determine the inhibitory effect of IgG hSD5 on in vivo tumor growth. Administration of IgG hSD5 (20 mg/kg, iv, qwk, indicated as blue filled inverted triangles) and Gemcitabine (100 mg/kg, iv, biw, indicated as orange filled squares) were used to test the inhibition effect on BxPc-3 tumor growth, n=6, TGI denotes Tumor growth inhibition. (FIG. 8A) Administration of IgG hSD5 (2 mg/kg, iv, qwk, indicated by solid black triangles), Gemcitabine (20 mg/kg, iv, biw, indicated by black open squares), and the experimental group that combined IgG and Gemcitabine treatment simultaneously (indicated by solid red diamonds) were used to teat the growth inhibitory effect of BxPc-3 on the tumor. (FIG. 8B) During treatments, the weight changes of each mouse group were tracked. (FIG. 8C) The expression levels of EphA2, cell proliferation marker Ki67, and apoptosis-related marker cleaved caspase3 in the excised tumor groups were analyzed by IHC staining. (FIG. 8D)

T1 sequence (Q15375 28-998 limits assumed): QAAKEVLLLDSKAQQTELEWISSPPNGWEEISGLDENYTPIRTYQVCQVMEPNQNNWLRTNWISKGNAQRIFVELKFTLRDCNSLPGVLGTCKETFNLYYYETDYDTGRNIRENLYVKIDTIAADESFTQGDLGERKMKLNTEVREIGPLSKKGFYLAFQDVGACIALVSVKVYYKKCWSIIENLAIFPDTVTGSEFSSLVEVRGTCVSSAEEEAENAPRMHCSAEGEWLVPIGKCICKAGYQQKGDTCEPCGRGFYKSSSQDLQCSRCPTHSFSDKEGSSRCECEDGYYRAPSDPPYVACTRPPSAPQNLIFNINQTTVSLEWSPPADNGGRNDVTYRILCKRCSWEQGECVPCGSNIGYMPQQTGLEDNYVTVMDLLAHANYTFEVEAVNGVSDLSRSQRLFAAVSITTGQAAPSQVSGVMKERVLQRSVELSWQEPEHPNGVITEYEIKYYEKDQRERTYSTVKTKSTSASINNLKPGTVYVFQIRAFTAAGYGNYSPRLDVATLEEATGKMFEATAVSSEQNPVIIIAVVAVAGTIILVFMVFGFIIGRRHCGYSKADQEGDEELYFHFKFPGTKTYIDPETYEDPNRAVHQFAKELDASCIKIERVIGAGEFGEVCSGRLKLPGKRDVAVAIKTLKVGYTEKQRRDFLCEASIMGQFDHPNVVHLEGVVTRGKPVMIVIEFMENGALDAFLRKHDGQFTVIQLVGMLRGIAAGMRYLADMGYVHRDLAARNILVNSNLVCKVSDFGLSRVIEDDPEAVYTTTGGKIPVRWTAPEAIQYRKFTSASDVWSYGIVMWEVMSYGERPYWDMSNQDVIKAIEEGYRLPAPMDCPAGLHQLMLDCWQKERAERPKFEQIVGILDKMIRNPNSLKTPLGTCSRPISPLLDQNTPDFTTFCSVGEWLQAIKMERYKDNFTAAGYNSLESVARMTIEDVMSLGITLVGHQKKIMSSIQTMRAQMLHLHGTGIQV
T2 sequence (P54756 25-1037 limits assumed): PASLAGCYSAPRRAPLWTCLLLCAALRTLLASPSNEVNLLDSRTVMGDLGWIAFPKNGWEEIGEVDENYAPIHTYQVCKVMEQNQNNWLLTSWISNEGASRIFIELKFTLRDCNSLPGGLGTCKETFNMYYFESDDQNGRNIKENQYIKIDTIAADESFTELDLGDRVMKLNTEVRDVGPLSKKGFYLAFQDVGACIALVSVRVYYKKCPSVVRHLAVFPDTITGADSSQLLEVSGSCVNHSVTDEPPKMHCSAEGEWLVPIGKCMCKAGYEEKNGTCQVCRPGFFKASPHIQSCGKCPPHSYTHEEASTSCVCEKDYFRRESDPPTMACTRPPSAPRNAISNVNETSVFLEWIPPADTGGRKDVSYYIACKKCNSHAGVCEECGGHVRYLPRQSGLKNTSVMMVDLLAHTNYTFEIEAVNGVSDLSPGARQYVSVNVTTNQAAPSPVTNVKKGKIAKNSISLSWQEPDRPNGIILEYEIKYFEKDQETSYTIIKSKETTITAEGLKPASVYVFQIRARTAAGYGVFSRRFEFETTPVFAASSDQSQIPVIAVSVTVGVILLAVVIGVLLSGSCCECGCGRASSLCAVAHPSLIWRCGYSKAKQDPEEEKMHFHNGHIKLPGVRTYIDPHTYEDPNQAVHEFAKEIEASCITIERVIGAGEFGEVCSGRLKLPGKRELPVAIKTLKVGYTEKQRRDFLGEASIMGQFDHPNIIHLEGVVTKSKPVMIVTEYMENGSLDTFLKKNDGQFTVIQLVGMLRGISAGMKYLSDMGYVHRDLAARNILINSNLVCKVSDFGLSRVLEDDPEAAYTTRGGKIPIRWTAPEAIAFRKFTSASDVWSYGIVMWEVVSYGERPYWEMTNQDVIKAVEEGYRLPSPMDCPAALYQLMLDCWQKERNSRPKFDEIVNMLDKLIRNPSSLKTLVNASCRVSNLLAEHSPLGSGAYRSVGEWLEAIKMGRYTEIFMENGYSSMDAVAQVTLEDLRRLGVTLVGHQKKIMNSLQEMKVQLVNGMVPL

B1: Humanized scFv hSD5 (scFv)
scFv: LTQPPSVSVSPGQTVRITCSGSSGSYGWYQQKSPGQAPVTLIYDNDKRPSGIPERFSGSSSGSTSTLTISGVQAEDEADYYCGSADSSTYVGMFGGGTKLTVLGQSSRSSQVQLVESGGGLVQPGGSLRLSCAASGFTFSDYGMGWVRQAPGKGLEWVAGISAAGSFTPYGAAVKGRFTISRDNSKNTVYLQMNSLRAEDTAVYYCARIPSGYRAGEIYTWGQGTLVTVSS
notes: also called hSD5 scFv; Humanized scFv hSDS
Turning to B1, the binding result in experiment [1], in experiment [2] and in experiment [3] was “no binding” throughout.

B2: IgG hSD5: complete humanized anti-EphA2 IgG (IgG1) of hSD5 (antibody, V domains shown)
VH: QVQLVESGGGLVQPGGSLRLSCAASGFTFSDYGMGWVRQAPGKGLEWVAGISAAGSFTPYGAAVKGRFTISRDNSKNTVYLQMNSLRAEDTAVYYCARIPSGYRAGEIYTWGQGTLVTVSS
VL: LTQPPSVSVSPGQTVRITCSGSSGSYGWYQQKSPGQAPVTLIYDNDKRPSGIPERFSGSSSGSTSTLTISGVQAEDEADYYCGSADSSTYVGMFGGGTKLTVL
With B2, the “expression levels of EphA2 and Ki-67 in the tissue” value in the experiment on Mia PaCa-2 tumor (IHC of Mia PaCa-2 tumor tissue sections (FIG. 8D)) is listed as “significantly decreased”. Moreover, the “TGI (tumor growth inhibition)” value with Mia PaCa-2 tumor (Mia PaCa-2 xenograft, 20 mg/kg) stood at 63.2%.
